Measured values taken from article doi:10.1101/2025.09.29.679228.
Where two headings read alike, the source gives them in different places. Each block holds one molecule with its values, some of them ahead of it.

Experiments:
Test in all cases: MST
[1] = biological target: EphA2 ICRΔSAM, wildtype, phosphorylated (human)
[2] = biological target: EphA2 ICRΔSAM, kinase-dead (D739N) (human)
[3] = biological target: EphA2 intracellular region (ICR), wildtype, phosphorylated (human) (UniProt P29317)
[4] = biological target: EphA2 intracellular region (ICR), kinase-dead (D739N) (human) (UniProt P29317)
[5] = biological target: EphA2 ICRΔSAM, wildtype, phosphorylated (human); remark: listed apart in the source
Target sequence in this assay (P29317 899-973, stated change not applied): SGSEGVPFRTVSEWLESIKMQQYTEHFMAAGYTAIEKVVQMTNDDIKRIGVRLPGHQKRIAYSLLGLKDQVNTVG

Molecule: EphA2 ICRΔSAM, wildtype, phosphorylated (domain or fragment)
- Kd [1]: 5.4 µM

Molecule: EphA2 intracellular region (ICR), wildtype, phosphorylated (from UniProt P29317 559-976) (domain or fragment)
- Kd [3]: 15 µM

B1: SHIP2 SAM domain (isolated) (domain or fragment)
chain: GMSAWLRAIGLERYEEGLVHNGWDDLEFLSDITEEDLEEAGVQDPAHKRLLLDTLQLSK
- Kd [5]: 7.5 µM

Other lines, results leading:

- Kd [2]: 1 µM
Molecule: EphA2 ICRΔSAM, kinase-dead (D739N) (domain or fragment)

- Kd [4]: 1.3 µM
Molecule: EphA2 intracellular region (ICR), kinase-dead (D739N) (from UniProt P29317 559-976) (domain or fragment)
